Measured values taken from article PMC4251497 (2014).

Biological target: the molecule itself
Assay: analytical ultracentrifugation

B1: Phenylalanine hydroxylase regulatory domain (RDPheH) 1-117 (protein)
chain: MAAVVLENGVLSRKLSDFGQETSYIEDNSNQNGAISLIFSLKEEVGALAKVLRLFEENDINLTHIESRPSRLNKDEYEFFTYLDKRTKPVLGSIIKSLRNDIGATVHELSRDKEKNT
B1 gave a Kd of 46 µM.

B2: Phenylalanine hydroxylase regulatory domain (RDPheH25-117) 25-117 (protein)
chain: IEDNSNQNGAISLIFSLKEEVGALAKVLRLFEENDINLTHIESRPSRLNKDEYEFFTYLDKRTKPVLGSIIKSLRNDIGATVHELSRDKEKNT
B2 was tested, and the Kd was 46 µM.
